Assay results published in patent US20140058068A1 (UNIVERSITY OF MIAMI, published 2014).
Square brackets hold non-standard residues; d marks the D form. Ends that are not written are not given here. * marks the point of attachment. Desaminotyrosyl = O=C(CCc1ccc(O)cc1)*; NMeY = CN[C@@H](Cc1ccc(O)cc1)C(=O)O; Nle = CCCC[C@H](N)C(=O)O; Orn = NCCC[C@H](N)C(=O)O; Abu = CC[C@H](N)C(=O)O; Aoc = NCCCCCCCC(=O)O; Ava = NCCCCC(=O)O

T1: GHRH receptor of human pituitary membrane homogenates (human, UniProt Q02643 23-423)
T1 construct: whole, on cells; Native receptor in pituitary membrane homogenates, not intact cells; also called hGH-RH receptor
T1 sequence (looked up): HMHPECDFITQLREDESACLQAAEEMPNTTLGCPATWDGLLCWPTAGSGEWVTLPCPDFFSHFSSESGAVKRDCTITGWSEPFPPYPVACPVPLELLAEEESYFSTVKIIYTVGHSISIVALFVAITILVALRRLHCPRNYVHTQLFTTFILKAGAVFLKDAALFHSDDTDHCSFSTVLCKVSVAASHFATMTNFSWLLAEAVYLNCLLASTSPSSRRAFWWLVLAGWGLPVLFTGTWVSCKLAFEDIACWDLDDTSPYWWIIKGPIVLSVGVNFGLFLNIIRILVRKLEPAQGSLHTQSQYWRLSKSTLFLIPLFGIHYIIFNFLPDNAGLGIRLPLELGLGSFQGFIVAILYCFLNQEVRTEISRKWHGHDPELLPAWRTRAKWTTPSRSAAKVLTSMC


These binders were tested against T1, GHRH receptor of human pituitary … (assay: radioligand competition, 125I-JV-1-42 (~0.2 nM) as competitor, human pituitary membrane homogenates).
Description: Normal human pituitaries were purchased from the National Hormone and Peptide Program (A. F. Parlow, Los Angeles, County Harbor-UCLA Medical Center, Torrance, Calif.).

IC50 [nM]	Relative affinity (Binding potency) vs JI-38	Binder
2.99	1.45 fold, JI-38 = 1	[NMeY]ADAIFTNSYR[Orn]VL[Abu]QLSAR[Orn]LLQDI[Nle]DR[Aoc]-NH2 (N-terminus assumed; SMILES CCCC[C@H](NC(=O)[C@@H](NC(=O)[C@H](CC(=O)O)NC(=O)[C@H](CCC(N)=O)NC(=O)[C@H](CC(C)C)NC(=O)[C@H](CC(C)C)NC(=O)[C@H](CCCN)NC(=O)[C@H](CCCNC(=N)N)NC(=O)[C@H](C)NC(=O)[C@H](CO)NC(=O)[C@H](CC(C)C)NC(=O)[C@H](CCC(N)=O)NC(=O)[C@H](CC)NC(=O)[C@H](CC(C)C)NC(=O)[C@@H](NC(=O)[C@H](CCCN)NC(=O)[C@H](CCCNC(=N)N)NC(=O)[C@H](Cc1ccc(O)cc1)NC(=O)[C@H](CO)NC(=O)[C@H](CC(N)=O)NC(=O)[C@@H](NC(=O)[C@H](Cc1ccccc1)NC(=O)[C@@H](NC(=O)[C@H](C)NC(=O)[C@H](CC(=O)O)NC(=O)[C@H](C)NC(=O)[C@H](Cc1ccc(O)cc1)NC)[C@@H](C)CC)[C@@H](C)O)C(C)C)[C@@H](C)CC)C(=O)N[C@@H](CC(=O)O)C(=O)N[C@@H](CCCNC(=N)N)C(=O)NCCCCCCCC(N)=O, also called Peptide 21301) [[N-Me-Tyr^1, Orn^12, Abu^15, Orn^21, Nle^27, Asp^28, Amc^30]hGH-RH(1-30)NH2]
1.99	2.18 fold, JI-38 = 1	[Desaminotyrosyl]ADAIFTQSYR[Orn]VL[Abu]QLSAR[Orn]LLQDI[Nle]DR[Ava]-NH2 (SMILES CCCC[C@H](NC(=O)[C@@H](NC(=O)[C@H](CC(=O)O)NC(=O)[C@H](CCC(N)=O)NC(=O)[C@H](CC(C)C)NC(=O)[C@H](CC(C)C)NC(=O)[C@H](CCCN)NC(=O)[C@H](CCCNC(=N)N)NC(=O)[C@H](C)NC(=O)[C@H](CO)NC(=O)[C@H](CC(C)C)NC(=O)[C@H](CCC(N)=O)NC(=O)[C@H](CC)NC(=O)[C@H](CC(C)C)NC(=O)[C@@H](NC(=O)[C@H](CCCN)NC(=O)[C@H](CCCNC(=N)N)NC(=O)[C@H](Cc1ccc(O)cc1)NC(=O)[C@H](CO)NC(=O)[C@H](CCC(N)=O)NC(=O)[C@@H](NC(=O)[C@H](Cc1ccccc1)NC(=O)[C@@H](NC(=O)[C@H](C)NC(=O)[C@H](CC(=O)O)NC(=O)[C@H](C)NC(=O)CCc1ccc(O)cc1)[C@@H](C)CC)[C@@H](C)O)C(C)C)[C@@H](C)CC)C(=O)N[C@@H](CC(=O)O)C(=O)N[C@@H](CCCNC(=N)N)C(=O)NCCCCC(N)=O, also called Peptide 22327) [[Dat^1, Gln^8, Orn^12, Abu^15, Orn^21, Nle^27, Asp^28, Apa^30]hGH-RH(1-30)NH2]
3.8	1.14 fold, JI-38 = 1	[NMeY]ADAIFTQSYR[Orn]VL[Abu]QLSAR[Orn]LLQDI[Nle]DR[Ava]-NH2 (also called Peptide 22325) [[N-Me-Tyr^1, Gln^8, Orn^12, Abu^15, Orn^21, Nle^27, Asp^28, Apa^30]hGH-RH(1-30)NH2]
3	1.45 fold, JI-38 = 1	[Desaminotyrosyl]ADAIFTQSYR[Orn]VL[Abu]QLSAR[Orn]LLQDI[Nle]DR-NHMe (SMILES CCCC[C@H](NC(=O)[C@@H](NC(=O)[C@H](CC(=O)O)NC(=O)[C@H](CCC(N)=O)NC(=O)[C@H](CC(C)C)NC(=O)[C@H](CC(C)C)NC(=O)[C@H](CCCN)NC(=O)[C@H](CCCNC(=N)N)NC(=O)[C@H](C)NC(=O)[C@H](CO)NC(=O)[C@H](CC(C)C)NC(=O)[C@H](CCC(N)=O)NC(=O)[C@H](CC)NC(=O)[C@H](CC(C)C)NC(=O)[C@@H](NC(=O)[C@H](CCCN)NC(=O)[C@H](CCCNC(=N)N)NC(=O)[C@H](Cc1ccc(O)cc1)NC(=O)[C@H](CO)NC(=O)[C@H](CCC(N)=O)NC(=O)[C@@H](NC(=O)[C@H](Cc1ccccc1)NC(=O)[C@@H](NC(=O)[C@H](C)NC(=O)[C@H](CC(=O)O)NC(=O)[C@H](C)NC(=O)CCc1ccc(O)cc1)[C@@H](C)CC)[C@@H](C)O)C(C)C)[C@@H](C)CC)C(=O)N[C@@H](CC(=O)O)C(=O)N[C@@H](CCCNC(=N)N)C(=O)NC, also called Peptide 27407) [[Dat^1, Gln^8, Orn^12, Abu^15, Orn^21, Nle^27, Asp^28]hGH-RH(1-29)NH-CH3]
0.83	5.24 fold, JI-38 = 1	[NMeY][dA]DAIFTTSYR[Orn]VL[Abu]QLSAR[Orn]LLQDI[Nle]DR-NHMe [[N-Me-Tyr^1, D-Ala^2, Thr^8, Orn^12, Abu^15, Orn^21, Nle^27, Asp^28]hGH-RH(1-29)NH-CH3]
3.61	1.2 fold, JI-38 = 1	[Desaminotyrosyl][dA]DAIFTNSYR[Orn]VL[Abu]QLSAR[Orn]LLQDI[Nle]DR[Aoc]-NH2 (SMILES CCCC[C@H](NC(=O)[C@@H](NC(=O)[C@H](CC(=O)O)NC(=O)[C@H](CCC(N)=O)NC(=O)[C@H](CC(C)C)NC(=O)[C@H](CC(C)C)NC(=O)[C@H](CCCN)NC(=O)[C@H](CCCNC(=N)N)NC(=O)[C@H](C)NC(=O)[C@H](CO)NC(=O)[C@H](CC(C)C)NC(=O)[C@H](CCC(N)=O)NC(=O)[C@H](CC)NC(=O)[C@H](CC(C)C)NC(=O)[C@@H](NC(=O)[C@H](CCCN)NC(=O)[C@H](CCCNC(=N)N)NC(=O)[C@H](Cc1ccc(O)cc1)NC(=O)[C@H](CO)NC(=O)[C@H](CC(N)=O)NC(=O)[C@@H](NC(=O)[C@H](Cc1ccccc1)NC(=O)[C@@H](NC(=O)[C@H](C)NC(=O)[C@H](CC(=O)O)NC(=O)[C@@H](C)NC(=O)CCc1ccc(O)cc1)[C@@H](C)CC)[C@@H](C)O)C(C)C)[C@@H](C)CC)C(=O)N[C@@H](CC(=O)O)C(=O)N[C@@H](CCCNC(=N)N)C(=O)NCCCCCCCC(N)=O, also called Peptide 21300) [[Dat^1, D-Ala^2, Orn^12, Abu^15, Orn^21, Nle^27, Asp^28, Amc^30]hGH-RH(1-30)NH2]
3.35	1.3 fold, JI-38 = 1	[Desaminotyrosyl][dA]DAIFTNSYR[Orn]VL[Abu]QLSAR[Orn]LLQDI[Nle]DR-NHMe (SMILES CCCC[C@H](NC(=O)[C@@H](NC(=O)[C@H](CC(=O)O)NC(=O)[C@H](CCC(N)=O)NC(=O)[C@H](CC(C)C)NC(=O)[C@H](CC(C)C)NC(=O)[C@H](CCCN)NC(=O)[C@H](CCCNC(=N)N)NC(=O)[C@H](C)NC(=O)[C@H](CO)NC(=O)[C@H](CC(C)C)NC(=O)[C@H](CCC(N)=O)NC(=O)[C@H](CC)NC(=O)[C@H](CC(C)C)NC(=O)[C@@H](NC(=O)[C@H](CCCN)NC(=O)[C@H](CCCNC(=N)N)NC(=O)[C@H](Cc1ccc(O)cc1)NC(=O)[C@H](CO)NC(=O)[C@H](CC(N)=O)NC(=O)[C@@H](NC(=O)[C@H](Cc1ccccc1)NC(=O)[C@@H](NC(=O)[C@H](C)NC(=O)[C@H](CC(=O)O)NC(=O)[C@@H](C)NC(=O)CCc1ccc(O)cc1)[C@@H](C)CC)[C@@H](C)O)C(C)C)[C@@H](C)CC)C(=O)N[C@@H](CC(=O)O)C(=O)N[C@@H](CCCNC(=N)N)C(=O)NC) [[Dat^1, D-Ala^2, Orn^12, Abu^15, Orn^21, Nle^27, Asp^28]hGH-RH(1-29)NH-CH3]
	8.37 fold, JI-38 = 1	[NMeY][dA]DAIFTQSYR[Orn]VL[Abu]QLSAR[Orn]LLQDI[Nle]DR-NHEt (also called Peptide 28420) [[N-Me-Tyr^1, D-Ala^2, Gln^8, Orn^12, Abu^15, Orn^21, Nle^27, Asp^28]hGH-RH(1-29)NH-CH2-CH3]
1.87	2.32 fold, JI-38 = 1	[NMeY][dA]DAIFTNSYR[Orn]VL[Abu]QLSAR[Orn]LLQDI[Nle]DR[Aoc]-NH2 (N-terminus assumed; SMILES CCCC[C@H](NC(=O)[C@@H](NC(=O)[C@H](CC(=O)O)NC(=O)[C@H](CCC(N)=O)NC(=O)[C@H](CC(C)C)NC(=O)[C@H](CC(C)C)NC(=O)[C@H](CCCN)NC(=O)[C@H](CCCNC(=N)N)NC(=O)[C@H](C)NC(=O)[C@H](CO)NC(=O)[C@H](CC(C)C)NC(=O)[C@H](CCC(N)=O)NC(=O)[C@H](CC)NC(=O)[C@H](CC(C)C)NC(=O)[C@@H](NC(=O)[C@H](CCCN)NC(=O)[C@H](CCCNC(=N)N)NC(=O)[C@H](Cc1ccc(O)cc1)NC(=O)[C@H](CO)NC(=O)[C@H](CC(N)=O)NC(=O)[C@@H](NC(=O)[C@H](Cc1ccccc1)NC(=O)[C@@H](NC(=O)[C@H](C)NC(=O)[C@H](CC(=O)O)NC(=O)[C@@H](C)NC(=O)[C@H](Cc1ccc(O)cc1)NC)[C@@H](C)CC)[C@@H](C)O)C(C)C)[C@@H](C)CC)C(=O)N[C@@H](CC(=O)O)C(=O)N[C@@H](CCCNC(=N)N)C(=O)NCCCCCCCC(N)=O) [[N-Me-Tyr^1, D-Ala^2, Orn^12, Abu^15, Orn^21, Nle^27, Asp^28, Amc^30]hGH-RH(1-30)NH2]
0.3	14.5 fold, JI-38 = 1	[NMeY]ADAIFTQSYR[Orn]VL[Abu]QLSAR[Orn]LLQDI[Nle]DR-NHMe (also called Peptide 27406) [[N-Me-Tyr^1, Gln^8, Orn^12, Abu^15, Orn^21, Nle^27, Asp^28]hGH-RH(1-29)NH-CH3]
1.08	4.03 fold, JI-38 = 1	[NMeY]ADAIFTQSYR[Orn]VL[Abu]QLSAR[Orn]LLQDI[Nle]SR-NHMe [[N-Me-Tyr^1, Gln^8, Orn^12, Abu^15, Orn^21, Nle^27]hGH-RH(1-29)NH-CH3]
2.45	1.78 fold, JI-38 = 1	[Desaminotyrosyl]ADAIFTQSYH[Orn]VL[Abu]QLSAH[Orn]LLQDI[Nle]DR-NHMe (SMILES CCCC[C@H](NC(=O)[C@@H](NC(=O)[C@H](CC(=O)O)NC(=O)[C@H](CCC(N)=O)NC(=O)[C@H](CC(C)C)NC(=O)[C@H](CC(C)C)NC(=O)[C@H](CCCN)NC(=O)[C@H](Cc1c[nH]cn1)NC(=O)[C@H](C)NC(=O)[C@H](CO)NC(=O)[C@H](CC(C)C)NC(=O)[C@H](CCC(N)=O)NC(=O)[C@H](CC)NC(=O)[C@H](CC(C)C)NC(=O)[C@@H](NC(=O)[C@H](CCCN)NC(=O)[C@H](Cc1c[nH]cn1)NC(=O)[C@H](Cc1ccc(O)cc1)NC(=O)[C@H](CO)NC(=O)[C@H](CCC(N)=O)NC(=O)[C@@H](NC(=O)[C@H](Cc1ccccc1)NC(=O)[C@@H](NC(=O)[C@H](C)NC(=O)[C@H](CC(=O)O)NC(=O)[C@H](C)NC(=O)CCc1ccc(O)cc1)[C@@H](C)CC)[C@@H](C)O)C(C)C)[C@@H](C)CC)C(=O)N[C@@H](CC(=O)O)C(=O)N[C@@H](CCCNC(=N)N)C(=O)NC, also called Peptide 27413) [[Dat^1, Gln^8, His^11, Orn^12, Abu^15, His^20, Orn^21, Nle^27, Asp^28]hGH-RH(1-29)NH-CH3]
